B1: AbF46, a mouse antibody to c-Met (antibody, V domains shown)
VH: EVKLVESGGGLVQPGGSLRLSCATSGFTFTDYYMSWVRQPPGKALEWLGFIRNKANGYTTEYSASVKGRFTISRDNSQSILYLQMDTLRAEDSATYYCARDNWFAYWGQGTLVTVSA
VL: DILMTQSPSSLTVSAGEKVTMSCKSSQSLLASGNQNNYLAWHQQKPGRSPKMLIIWASTRVSGVPDRFIGSGSGTDFTLTINSVQAEDLAVYYCQQSYSAPLTFGAGTKLELK
notes: also called monoclonal antibody of hybridoma KCLRF-BP-00220
B2: huAbF46-H4-A1 (L3-1 origin) (antibody, V domains shown)
VH: EVQLVESGGGLVQPGGSLRLSCAASGFTFTDYYMSWVRQAPGKGLEWLGFIRNKANGYTTEYSASVKGRFTISRDNSKNTLYLQMNSLRAEDTAVYYCARDNWFAYWGQGTLVTVSS
VL: DIQMTQSPSSLSASVGDRVTITCKSSQSLLASGNQNNHLAWYQQKPGKAPKMLIIWASTRVSGVPSRFSGSGSGTDFTLTISSLQPEDFATYYCQQSYSRPYTFGQGTKVEIKR
B3: L3-1Y (antibody, V domains shown)
VH: EVQLVESGGGLVQPGGSLRLSCAASGFTFTDYYMSWVRQAPGKGLEWLGFIRNKANGYTTEYSASVKGRFTISRDNSKNTLYLQMNSLRAEDTAVYYCARDNWFAYWGQGTLVTVSS
VL: DIQMTQSPSSLSASVGDRVTITCKSSQSLLASGNQNNYLAWYQQKPGKAPKMLIIWASTRVSGVPSRFSGSGSGTDFTLTISSLQPEDFATYYCQQSYSRPYTFGQGTKVEIKR
notes: also called c-Met single-targeted antibody L3-1Y
B4: MV10A (bispecific antibody)
heavy: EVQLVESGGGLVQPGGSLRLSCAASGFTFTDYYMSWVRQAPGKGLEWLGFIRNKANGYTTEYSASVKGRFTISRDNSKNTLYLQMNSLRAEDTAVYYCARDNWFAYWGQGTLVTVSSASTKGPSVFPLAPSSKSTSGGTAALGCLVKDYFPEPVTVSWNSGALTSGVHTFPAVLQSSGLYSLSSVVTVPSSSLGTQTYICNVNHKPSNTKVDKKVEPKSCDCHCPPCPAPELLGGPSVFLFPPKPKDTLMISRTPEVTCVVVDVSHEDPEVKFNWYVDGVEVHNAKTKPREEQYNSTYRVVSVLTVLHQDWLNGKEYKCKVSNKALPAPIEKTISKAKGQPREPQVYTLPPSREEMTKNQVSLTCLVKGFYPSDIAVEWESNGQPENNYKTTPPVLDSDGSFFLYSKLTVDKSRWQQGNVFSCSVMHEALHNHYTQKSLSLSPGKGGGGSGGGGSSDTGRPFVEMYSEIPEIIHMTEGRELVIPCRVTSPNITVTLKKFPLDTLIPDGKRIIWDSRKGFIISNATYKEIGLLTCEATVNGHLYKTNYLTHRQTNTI
light: DIQMTQSPSSLSASVGDRVTITCKSSQSLLASGNQNNHLAWYQQKPGKAPKMLIIWASTRVSGVPSRFSGSGSGTDFTLTISSLQPEDFATYYCQQSYSRPYTFGQGTKVEIKRTVAAPSVFIFPPSDEQLKSGTASVVCLLNNFYPREAKVQWKVDNALQSGNSQESVTEQDSKDSTYSLSSTLTLSKADYEKHKVYACEVTHQGLSSPVTKSFNRGEC
B5: MV10AY U3 HC9/IgG2 (bispecific antibody)
heavy: EVQLVESGGGLVQPGGSLRLSCAASGFTFTDYYMSWVRQAPGKGLEWLGFIRNKANGYTTEYSASVKGRFTISRDNSKNTLYLQMNSLRAEDTAVYYCARDNWFAYWGQGTLVTVSSASTKGPSVFPLAPCSRSTSESTAALGCLVKDYFPEPVTVSWNSGALTSGVHTFPAVLQSSGLYSLSSVVTVPSSNFGTQTYTCNVDHKPSNTKVDKTVERKCCVECPPCPAPPVAGPSVFLFPPKPKDTLMISRTPEVTCVVVDVSHEDPEVQFNWYVDGVEVHNAKTKPREEQFNSTFRVVSVLTVVHQDWLNGKEYKCKVSNKGLPAPIEKTISKTKGQPREPQVYTLPPSREEMTKNQVSLTCLVKGFYPSDIAVEWESNGQPENNYKTTPPMLDSDGSFFLYSKLTVDKSRWQQGNVFSCSVMHEALHNHYTQKSLSLSPGKGGGGSGGGGSSDTGRPFVEMYSEIPEIIHMTEGRELVIPCRVTSPNITVTLKKFPLDTLIPDGKRIIWDSRKGFIISNATYKEIGLLTCEATVNGHLYKTNYLTHRQTNTI
light: DIQMTQSPSSLSASVGDRVTITCKSSQSLLASGNQNNYLAWYQQKPGKAPKMLIIWASTRVSGVPSRFSGSGSGTDFTLTISSLQPEDFATYYCQQSYSRPYTFGQGTKVEIKRTVAAPSVFIFPPSDEQLKSGTASVVCLLNNFYPREAKVQWKVDNALQSGNSQESVTEQDSKDSTYSLSSTLTLSKADYEKHKVYACEVTHQGLSSPVTKSFNRGEC
B6: MV10AY (bispecific antibody)
heavy: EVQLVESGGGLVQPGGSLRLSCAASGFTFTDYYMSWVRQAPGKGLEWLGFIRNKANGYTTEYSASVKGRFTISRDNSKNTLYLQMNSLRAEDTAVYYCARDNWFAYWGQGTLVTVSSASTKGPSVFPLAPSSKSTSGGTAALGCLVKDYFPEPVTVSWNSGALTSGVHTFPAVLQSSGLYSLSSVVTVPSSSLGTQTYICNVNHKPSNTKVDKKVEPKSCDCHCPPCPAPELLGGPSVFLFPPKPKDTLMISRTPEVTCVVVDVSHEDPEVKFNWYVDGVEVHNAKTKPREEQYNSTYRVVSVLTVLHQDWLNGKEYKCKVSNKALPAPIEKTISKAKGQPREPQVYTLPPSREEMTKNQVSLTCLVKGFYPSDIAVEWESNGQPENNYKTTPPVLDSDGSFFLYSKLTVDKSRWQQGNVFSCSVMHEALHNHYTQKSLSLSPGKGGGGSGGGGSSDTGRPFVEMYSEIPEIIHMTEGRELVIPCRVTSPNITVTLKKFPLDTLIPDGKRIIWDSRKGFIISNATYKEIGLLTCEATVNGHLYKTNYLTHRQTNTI
light: DIQMTQSPSSLSASVGDRVTITCKSSQSLLASGNQNNYLAWYQQKPGKAPKMLIIWASTRVSGVPSRFSGSGSGTDFTLTISSLQPEDFATYYCQQSYSRPYTFGQGTKVEIKRTVAAPSVFIFPPSDEQLKSGTASVVCLLNNFYPREAKVQWKVDNALQSGNSQESVTEQDSKDSTYSLSSTLTLSKADYEKHKVYACEVTHQGLSSPVTKSFNRGEC
notes: also called bispecific antibody MV10AY; double-specific antibody MV10AY
B7: Ab2 (antibody, V domains shown)
VH: QVQLVQSGAEVKKPGASVKVSCKASGYIFTAYTMHWVRQAPGQGLDWMGGIKPNNGLANYAQKFQGRVTMTVDKSISTAYMELSRLRSDDTAVYYCARSEITTEFDYWGQGTLVTVSS
VL: DIVLTQSPDSLAVSLGERATINCRSSESVDSYANSFMHWYQQKPGQPPKLLIYRASTRESGVPDRFSGSGSRTDFTLTISSLQAEDVAVYYCQQSKEDPLTFGGGTKVEIKR

How the values were obtained:
[1] = target: T1, human c-Met/Fc fusion protein (R&D Systems) (human, UniProt P08581 25-932); assay: ELISA, hybridoma culture on plate-coated human c-Met/Fc fusion protein
T1 construct: Immunogen and ELISA antigen; also called human c-Met/Fc protein; not shown: Fc part of the bought fusion protein; not described

[2] = target: c-Met on cells (MKN45, Caki-1, NCI-H441, HUVEC) (human, UniProt P08581 25-1390); assay: cell-based or functional assay
[3] = target: T2, c-Met (R&D Systems, Cat. No. 358-MT/CF) (UniProt P08581 25-932); assay: SPR, Biacore T100; antibody captured by human Fab binder on CM5 chip, c-Met injected
T2 construct: Bought protein used as analyte in SPR
Protocol: The binding kinetics of the double-targeted fusion proteins manufactured in the above were analyzed using Biacore T100 instrument (GE Healthcare). A human Fab binding agent (GE Healthcare) was immobilized on the surface of a CM5 chip (GE Healthcare, Cat. No. BR-1005-30) according to the manufacturer's manual. […] Then, 10 mM Glycine-HCl (pH 1.5) solution was added thereto, whereby the surface was regenerated. In order to measure the binding kinetics, the data obtained from the above experiment was fitted using BIAevaluation software (GE Healthcare, Biacore T100 evaluation software).

[4] = target: hVEGF (GE Healthcare, 28-9583-25) (human, UniProt P15692-4 27-191); assay: SPR, Biacore T100; hVEGF immobilized on CM5 chip, MV10AY at 6 concentrations
Protocol: The binding kinetics of the double-specific antibodies having VEGF as a target were measured by an SPR method using Biacore T100 instrument (GE Healthcare). hVEGF (GE Healthcare, 28-9583-25) was immobilized on the surface of a CM5 chip according to the manufacturer's manual. […] The obtained surface was regenerated by injecting 1M NaCl+30 mM NaOH at a fluid rate of 30 μl/min for 60 sec. In order to determine binding kinetics, the data obtained from the above experiment was fitted using BIAevaluation software (GE Healthcare) (K_{D=}=0.45 nM).

T2 sequence (P08581 25-932 limits assumed): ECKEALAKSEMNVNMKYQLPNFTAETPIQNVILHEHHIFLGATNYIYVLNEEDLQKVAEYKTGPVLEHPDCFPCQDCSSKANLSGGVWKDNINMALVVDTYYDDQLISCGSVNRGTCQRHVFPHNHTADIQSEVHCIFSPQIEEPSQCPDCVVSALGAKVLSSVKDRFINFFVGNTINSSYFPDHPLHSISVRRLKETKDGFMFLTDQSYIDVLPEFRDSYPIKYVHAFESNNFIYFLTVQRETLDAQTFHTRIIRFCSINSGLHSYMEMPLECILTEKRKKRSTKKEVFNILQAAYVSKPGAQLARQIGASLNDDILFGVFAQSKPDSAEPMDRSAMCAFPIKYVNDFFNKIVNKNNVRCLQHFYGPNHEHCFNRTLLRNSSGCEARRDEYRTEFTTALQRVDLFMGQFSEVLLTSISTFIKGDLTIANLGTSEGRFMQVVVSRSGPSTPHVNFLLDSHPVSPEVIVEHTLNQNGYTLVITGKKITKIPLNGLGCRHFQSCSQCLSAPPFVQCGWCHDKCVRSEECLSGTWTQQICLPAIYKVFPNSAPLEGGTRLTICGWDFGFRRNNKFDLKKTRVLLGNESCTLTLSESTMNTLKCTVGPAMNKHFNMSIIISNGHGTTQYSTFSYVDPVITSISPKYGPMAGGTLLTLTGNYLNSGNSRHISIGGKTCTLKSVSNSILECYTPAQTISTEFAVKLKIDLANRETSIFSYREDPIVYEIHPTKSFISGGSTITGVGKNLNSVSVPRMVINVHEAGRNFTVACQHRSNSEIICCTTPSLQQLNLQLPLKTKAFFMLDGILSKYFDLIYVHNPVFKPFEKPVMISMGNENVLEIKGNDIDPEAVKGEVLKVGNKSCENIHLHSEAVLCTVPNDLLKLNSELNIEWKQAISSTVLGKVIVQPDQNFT
c-Met on cells (MKN45, Caki-1, NCI-H441, HUVEC), sequence (P08581 25-1390): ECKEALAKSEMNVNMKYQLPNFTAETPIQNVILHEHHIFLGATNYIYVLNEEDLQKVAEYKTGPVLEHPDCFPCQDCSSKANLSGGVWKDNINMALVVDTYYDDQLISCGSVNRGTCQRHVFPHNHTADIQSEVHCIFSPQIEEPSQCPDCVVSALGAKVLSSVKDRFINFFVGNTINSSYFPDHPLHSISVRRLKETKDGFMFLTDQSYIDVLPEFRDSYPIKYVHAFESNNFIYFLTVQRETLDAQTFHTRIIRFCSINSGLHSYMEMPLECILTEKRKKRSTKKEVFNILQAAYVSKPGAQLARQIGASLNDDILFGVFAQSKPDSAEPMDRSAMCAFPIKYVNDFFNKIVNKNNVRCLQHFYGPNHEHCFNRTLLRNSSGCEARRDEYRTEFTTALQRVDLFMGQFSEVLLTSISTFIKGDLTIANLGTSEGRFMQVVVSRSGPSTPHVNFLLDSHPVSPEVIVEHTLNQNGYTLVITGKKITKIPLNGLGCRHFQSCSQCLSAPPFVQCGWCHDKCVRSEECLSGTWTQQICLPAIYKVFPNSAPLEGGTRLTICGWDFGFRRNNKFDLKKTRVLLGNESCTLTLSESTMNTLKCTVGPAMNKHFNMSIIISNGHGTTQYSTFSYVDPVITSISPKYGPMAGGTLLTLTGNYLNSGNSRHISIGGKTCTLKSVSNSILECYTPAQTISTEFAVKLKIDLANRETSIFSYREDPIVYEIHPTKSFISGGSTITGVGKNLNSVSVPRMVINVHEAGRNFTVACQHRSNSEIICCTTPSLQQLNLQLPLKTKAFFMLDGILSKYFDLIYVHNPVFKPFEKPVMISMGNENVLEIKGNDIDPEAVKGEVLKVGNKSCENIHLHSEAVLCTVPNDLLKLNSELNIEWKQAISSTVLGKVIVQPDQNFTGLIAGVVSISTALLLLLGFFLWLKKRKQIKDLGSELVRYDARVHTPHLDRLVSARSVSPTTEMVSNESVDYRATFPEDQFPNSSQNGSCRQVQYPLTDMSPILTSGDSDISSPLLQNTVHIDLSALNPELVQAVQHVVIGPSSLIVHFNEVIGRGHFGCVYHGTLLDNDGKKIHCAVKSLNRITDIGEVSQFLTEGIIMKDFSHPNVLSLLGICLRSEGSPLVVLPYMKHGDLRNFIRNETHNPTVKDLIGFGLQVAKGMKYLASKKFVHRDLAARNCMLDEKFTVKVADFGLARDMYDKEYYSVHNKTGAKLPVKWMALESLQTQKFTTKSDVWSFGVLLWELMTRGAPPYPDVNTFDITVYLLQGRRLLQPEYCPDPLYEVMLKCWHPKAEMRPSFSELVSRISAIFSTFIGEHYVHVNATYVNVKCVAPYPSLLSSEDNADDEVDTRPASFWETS
hVEGF (GE Healthcare, 28-9583-25), sequence (P15692 other isoform, or with tags, fused parts or gaps limits assumed): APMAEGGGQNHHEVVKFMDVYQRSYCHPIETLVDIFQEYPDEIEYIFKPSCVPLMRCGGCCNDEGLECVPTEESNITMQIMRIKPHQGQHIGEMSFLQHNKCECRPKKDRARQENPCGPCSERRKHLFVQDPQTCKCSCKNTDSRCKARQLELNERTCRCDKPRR
T1 sequence (P08581 25-932 limits assumed): as the sequence (P08581 25-932 limits assumed) above

| Binder | AKT phosphorylation inhibitory ability (phospho-AKT Ser473 ELISA, Caki-1 cells, compared to 5D5 control group) [2] [%] | c-Met degradation ability (total c-Met ELISA, MKN45 cells, 5 ug/ml antibody, 24 h) [2] [%] | Kd [3] [nM] | koff [3] [s⁻¹] | kon [3] [M⁻¹ s⁻¹] | also measured |
| --- | --- | --- | --- | --- | --- | --- |
| B1 |  |  |  |  |  | binding result [1]: binds |
| B2 | 69 | 68 |  |  |  |  |
| B3 | 63 | 66 | < 0.01 | < 1.2e-05 | 770000 |  |
| B4 | 79 | 76 |  |  |  |  |
| B5 |  |  | < 0.01 | < 6.9e-05 | 720000 |  |
| B6 | 74 | 72 | < 0.01 | < 1.4e-05 | 680000 | Kd [4]: 0.45 nM; koff [4]: 0.0011 s⁻¹; kon [4]: 2.4e+06 M⁻¹ s⁻¹ |
| B7 |  |  |  |  |  | c-Met degradation ability (total c-Met ELISA, method of Example 2.2) [2]: 70.4% |

From patent publication US20140294837A1 (SAMSUNG ELECTRONICS, published 2014)
